According to patent US20240026407A1, “MODIFICATION OF SAPONINS” (GLAXOSMITHKLINE BIOLOGICALS SA, priority 2020, published 2024):

Legend:
Format in all cases: biochemical, Quillaja saponaria
[1] = Experiment 4-4: screening of glucosidases for deglycosylation of QS-18 in crude bark extract (1 in 20 dilution) to QS-21; conditions: CBE 1 in 20 dilution, pH 6, 25 degC, 18 hours; % conversion of Middle Peak by UV HPLC
Summary of the method: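 Clarified glucosidase lysates were incubated with pH 6 crude bark extract (1 in 20) in potassium phosphate buffer pH 6 for 18 h at 25 °C with shaking, then quenched with MeCN. UV HPLC with MS/MS-supported peak identity; activity is % conversion of the extract's Middle Peak (QS-18 family) toward the QS-21 peak.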

[2] = Experiment 4-1: screening of glucosidases for deglycosylation with purified QS-18 (0.04 mg/ml) at pH 7.5 and room temperature; conditions: pH 7.5, room temperature, 20 h, clarified E. coli lysate, QS-18 2150 to QS-21 1988 by LCMS/MS
Summary of the method: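 Candidate glucosidases expressed in E. coli BL21(DE3) (pET24b+, autoinduction, 20 °C for 20 h); clarified lysates in 100 mM potassium phosphate pH 7.5 incubated with QS-18 (0.04 mg/ml final) 20 h at room temperature. Quenched with MeCN, analysed by LC-MS/MS for % conversion; hits >3 S.D. above negative control.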

[3] = Experiment 4-2: screening of glucosidases for deglycosylation with purified QS-18 (1 mg/ml) at pH 6 and 30 deg C; conditions: pH 6, 30 degC, 18 hrs, clarified lysate, LCMS/MS
Summary of the method: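 Clarified lysates of glucosidase-expressing cells in 100 mM potassium phosphate pH 6 were incubated 18 h at 30 °C with QS-18 at 1 mg/ml final. Reactions quenched with MeCN; deglycosylation activity determined by LC-MS/MS.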

B1: 380 (protein, listed as Ogataea parapolymorpha)
chain: MSTFDVDDILSQLHVKEKVQLLSLKDFWHTANIDRLNIPSVRLSDGPNGVRGTKFFRSVPSACFSSGTALAATFNMPLLEQLGKLMAEEARHKGAHVILGPTCNIARGPLGGRGFESFSEDPYLSGIAAAAIIKGIESQGIGATLKHFVCNDLEDERNSIDVILSDRALREIYLLPFQIAIKEANPKCVMSSYNKVMGEHVSQSKKLLTDILRKEWGWDGLTMSDWFGVYSIKSSLDAGLDLECPGYPLMRKHDALIHAISSREINMDVIDIRVRNILKLVQHALKSSIPQNAPEDSENNTPETSALLRKAASEAIVLLKNESSILPLKPSDEIAVIGPNARIPRMYGGGSASVNCYYGISVYDGISNKIGSQPPYSMGCDIARNMFDLGKLASYKGEPGVRIKVYKEAPGTPDRSLIEEFRYDSLQLLLFDYNHEKLDSSLFYFDIEGEFTSDKDMSYDIHLSCLGTALLYINGELFIDDKTNQKMGFAAIGASSLGDTKTIHMKKDERIEFKIEFGSAPTFTLETLDLVASNGGGSLTVAIGEKITDQNRINDAVELAKTADKVILCVGTSSDWESEGFDRPHMDLPKSQGILIEEILKVNKNIILVNLSGTPVTLPWIDEIPAVVHGWFNGMESGNAMADVLYGDVNASGKLSLSWPKRCEDNPSFLNFKSDKGKVVYGEDVFVGYRYYEKVCREPLFAFGYGLSYTAFNFDGLDVKVAADNLVCTLNIKNIGKLRGAEVVQLYVIPPLTTTTVSRPLKEFKGCQKVFLEPGQKITTTISVPIKYACSYFDVERQKWSIESGEYGVFIGNSSDAMDALIGKFVIQKPLLWSGL
- Expt 4-4 % conv [1]: <3%
- Expt 4-1 % conv [2]: 2.4%
- Expt 4-2 % conv [3]: 0.5%

B2: 354 (protein, listed as Chthonomonas calidirosea)
chain: MGKTKRSLKVNRRDFFTLGAATLLAAISLPDGDLLAFAQKEREKDLVYGIRRERFEWAQKKAAALVAQMTREEKISQVGNNVPAIPRLGLPAYNYYSGEALHGLVRGGPVTSFPLPLALANTWNPELQYQVYTAVSDEARAYHNRDGVGLAYYSPQTINTAKDPRWGRIEETLGEDPHLMSLMAVQAVRGMQGDDPNYLKTVACAKHYIANETDNDRTAVSETVDPRSFWEYYVRPFYACVVDGKVFSVMGAYNAVNGIPCCADKNLLTGILRERWGFQGYVTSDCDAIYNIYDPHHYATSLAEACAMGIKAGCDLDCGDTYPRHLGEAFEQHLLEEADLDKAVTRLLTARFLFGDLDPEPRCPYNKIPFSVVDSPKHRALALEAARQSIVLLKNDGILPLDKTALKSVAVIGPTAAIAHLGGYSGAPFLRVSPLSGIAQALGIGIHFDEVYAYQAVRLEGGPQLESSVEQGGTDIGFIKNGSWVEFPATDFAGKNEIEVRVASDTQGGTIEIHLDRLNGPLLCTLQVPHTGGWQNWISLKAPINGVIGKHKLFFLFKGGDGYLLNVAWYRLNPPSPPETHNPNGIALTYQQGCTITGARNDTMFQKAVEAARQADVAIVVAGVNQEVDAEGHDRDDIRLTGAQHELIQAVYQANPKTILVLSTNAPVAVTWEQENLPAIVAAIFAGQAQGTAIADVLFGNYNPSGKLATTWYKSVEDLPDFHDFDITKRTYMYFEGEPLYPFGYGLSYTTFQIGNIQVSHPRLTSGGSITVSVDVTNIGKRAGTEVVQLYVRPPKSPVKRPNKQLVDFKRVELRPGETKRVELSLPYESPALWYWDVAQSKFVLQPGTVTLMVGNSSAHIAHTTTIELV
- Expt 4-4 % conv [1]: <3%
- Expt 4-1 % conv [2]: 1.6%
- Expt 4-2 % conv [3]: 0.5%

B3: 234 (protein, listed as Sphingobium chlorophenolicum)
chain: MTFPRSLFLASTILAFHCNPSFARNESPAKAIERADKTLKAMTPEEKTILTHGIMPLKILPNSPEPPAEAIPGAGYIKGIPRLGVPALYETDASLGVSYVFGLRKDGATALPSGLAQASTWNPALIEKAGRMIGAETRAKGFNVLLAGGVNLMRDPRNGRNFEYLGEDPLLAGTLVGHAIRGIQSNHIISTIKHFAFNGQETARKLVDSKISAANAHESDLLAFKIGIEIGDPGSVMCAYNKVNGHSACDNNWLLNTVLKHDWGYKGFVMSDWGAVPSLGAALNGLDQQSGEQLDTAVFFGDTLAAAAKSNPVYAKRLDDMNRRILWAIYNNGLDANPAKPGGVIDFKAHGDIAEQVARQGIVLLRNERGVLPLAASTKRIAVIGGYANSGVLSGAGSSQVQAEGGPAVYIPAGNGDENSSFIAESYHNSVPLKALRAAAPNAEITYRNGRYIAEAVAQAKKSDVAIVFATQWTSEGFDVPDMSLPNGQDALLAAVAAANPNTVVVLETGGPVMMPWLDSTAAVIEAWYPGARGAEAIAAVLTGKVNPSGKLPVTFPAHKDQLPRAEVDGMDSTEPSFLGMPDLKGQALVADYDIEGSNIGYRWNALKGNKALFPFGHGLSYTSFAASGLKTDGARASARITNTGKADGATIAQLYLVSRTGKPARRLVSFQRVELVAGQSKPLAMTIDPRLLGDWRDGNWTIVAGDYGFALGEDAEHLGPVTTVRLKGRTWRD
- Expt 4-4 % conv [1]: <3%
- Expt 4-1 % conv [2]: 2.5%
- Expt 4-2 % conv [3]: 0.7%

B4: 222 (protein, listed as Marinomonas posidonica)
chain: MTPKDILNALTVEEKARLCTGKDFWHLHGIERLELPSIMVTDGPHGLRKQSGEGDHVGLNASVKATCFPTASGLASSWNPALIEKMGVALGKECRAENVSVLLGPGINIKRNPLGGRNFEYFSEDPLIAGDMSTAWIKGVQSQDVGTSLKHYAVNNHEHCRMTVDAVVDQRTLREIYLPAFEKAIKQSQPWTVMCAYNKINGTYAAEHQQLLDDILVKEWGFEGIVVTDWGANNDRVEGIKHGQHLEMPSSGELNTQKILDAIDSGRLSIAALDKSVLRVLELIVKSQAALNNAPVNVDLERHHTLASKVAEESCVLLKNDQLLPAQKDQNVLVIGALANNTRYQGAGSSKINPFKLEQPLAQIEAVFGTNNVRYSQGYQLNDESDQTMIEDAVAQAEQADVIFLFAGLTPKYESEGFDRQHLNLPQVQLDLIDALGDQLGKTAVILQNGAPVTLPFVDKVPAILEAYLGGQAGASAIAKILAGDVNPSGKLAETFPLSLDDVPSQPYFPGTTKQTQYREAIWVGYRYFAHTAQPVLFPFGHGLTYSEFSFSELRIMDDKLDLKAVSFDEQTRIRLQVTVTNTGDRAGAEVVQCYLGQNKPSQPRPAKELRAYQKVFLEAGQSKCVELELNYRDFAFWCEADSQWRVESDDYHIQIGASVEDIRLTTLITLKTDTPLAPQNATLSAYFTPADRQFNDQSFSALLGKPIPDATPITPYTLNSTLGDIAQTEQGKPLFNAMLSVFSKMMEGDTNDSAAEADKLMAEAMVSDMPLRNLPVFNSQSYSEEALLALLADLNS
- Expt 4-4 % conv [1]: <3%
- Expt 4-1 % conv [2]: 1.6%
- Expt 4-2 % conv [3]: 0.4%

B5: 350 (protein)
chain: MIDDILDKMTLEEQVSLLSGADFWTTVAIERLGVPKIKVTDGPNGARGGGSLVGGVKSACFPVAIALGATWDPELIERAGVALGGQAKSKGASVLLAPTVNIHRSGLNGRNFECYSEDPALTAACAVAYINGVQSQGVAATIKHFVANESEIERQTMSSDVDERTLREIYLPPFEEAVKKAGVKAVMSSYNKLNGTYTSENPWLLTKVLREEWGFDGVVMSDWFGSHSTAETINAGLDLEMPGPWRDRGEKLVAAVREGKVKAETVRASARRILLLLERVGAFEKAPDLAEHALDLPEDRALIRQLGAEGAVLLKNDGVLPLAKSSFDQIAVIGPNAASARVMGGGSARIAAHYTVSPLEGIRAALSNANSLRHAVGCNNNRLIDVFSGEMTVEYFKGRGFESRPVHVETVEKGEFFWFDLPSGDLDLADFSARMTATFVPQETGEHIFGMTNAGLARLFVDGELVVDGYDGWTKGENFFGTANSEQRRAVTLGAARRYRVVVEYEAPKASLDGINICALRFGVEKPLGDAGIAEAVETARKSDIVLLLVGREGEWDTEGLDLPDMRLPGRQEELIEAVAETNPNVVVVLQTGGPIEMPWLGKVRAVLQMWYPGQELGNALADVLFGDVEPAGRLPQTFPKALTDNSAITDDPSIYPGQDGHVRYAEGIFVGYRHHDTREIEPLFPFGFGLGYTRFTWGAPQLSGTEMGADGLTVTVDVTNIGDRAGSDVVQLYVHSPNARVERPFKELRAFAKLKLAPGATGTAVLKIAPRDLAYFDVEAGRFRADAGKYELIVAASAIDIRASVSIHLPVDHVMEP
modifications: Rhizobium radiobacter
- Expt 4-4 % conv [1]: <3%
- Expt 4-1 % conv [2]: 2.6%
- Expt 4-2 % conv [3]: 0.7%

B6: 339 (protein, listed as Koribacter versatilis)
chain: MKISRVFLATTLALSMFGSAQRPDPRAELMKKPWMDKNKSADERAELVLKEMTVDEKINLIHGQGMEEMAEFGIPMPNKALGNGGAGFVLGVERLGIPLIQMSDAAYGVRSSAKNGRYSTALPSNLGSAASWDPQAACEYGALIGRELRAQGYNMTLGGGVNITREPRNGRTFEYMGEDPILAGTLVGNRIKCEQAQHVIGDTKHYAVNDQESGRTEVDVVISKRAMRETDLLAFEIGIEIGQPGAVMCSYNLVNGTYACQNKYLLTDVLKKDWNFKGFVVSDWGATHSTIESSAAGLDNEQPFGIFYSDKFKAGLDSGKIPMSELDDHVRRILRTEFASGIVDNPVVKAVVDVEAGLETARKIEEGSIVLLKNGNNILPLDKDSIKSVAIIGEKADFGMISGGGSAQVDPPGPSHEWQAHVWFPTSPLKAVQAKLPNAKVDWRSGSDKSKAAALAKQSDIAIVFVHQWISEGMDLPDLTLPFGQDELIERVAAANPRTIVVLESGTAVTMPWLDKVSGVVEAWYGGSKGADAVANILFGDVNPSGKLPMTFPRSVEDVPHPKLAVPPPNPNPMETYMHPELAKATVTATYDEGVKVGYKWYDAEKKPVLFPFGFGLSYTTYQYSGLKVSSGKTTTVSFTVKNTGKRGGDEIAQVYASLPAEAQEPPKRLVGFTKVHLNAGESKEVSVTVPAKYLSVFDEASNGWKLVPGSYSFMVGGSSQDLPQKQSATF
- Expt 4-4 % conv [1]: <3%
- Expt 4-1 % conv [2]: 1.4%
- Expt 4-2 % conv [3]: 0.5%
